According to patent US20260042854A1 (SCIWIND BIOSCIENCES USA, published 2026):

Columns and labels:
[1] = biological target: T1, hGLP-1R on the cell membrane (HEK293 cells overexpressing hGLP-1R) (human, UniProt P43220 24-463); assay: cell-based or functional assay
[2] = biological target: T1, hGLP-1R on the cell membrane (HEK293 …); assay: cell-based or functional assay; remark: listed apart in the source
[3] = biological target: monkey GLP-1R (JN033215.1) on HEK293 cells (monkey); assay: cell-based or functional assay
[4] = biological target: T1, hGLP-1R on the cell membrane (HEK293 …); assay: flow cytometry on HEK293 cells overexpressing hGLP-1R, PE anti-human IgG Fc
[5] = biological target: T2, extracellular domain of hGLP-1R (NP_002053.3, aa 24-145), recombinant protein (human, UniProt P43220 24-145); assay: ELISA, plate coated with hGLP-1R extracellular domain, anti-human Fc-HRP detection
T2 construct: range 24-145; Expressed as a recombinant protein; also called hGLP-1R recombinant protein

[6] = biological target: T3, mouse GLP-1R (NM_021332.2) on HEK293 cells (mouse, UniProt O35659 22-463); assay: cell-based or functional assay
T3 sequence (looked up): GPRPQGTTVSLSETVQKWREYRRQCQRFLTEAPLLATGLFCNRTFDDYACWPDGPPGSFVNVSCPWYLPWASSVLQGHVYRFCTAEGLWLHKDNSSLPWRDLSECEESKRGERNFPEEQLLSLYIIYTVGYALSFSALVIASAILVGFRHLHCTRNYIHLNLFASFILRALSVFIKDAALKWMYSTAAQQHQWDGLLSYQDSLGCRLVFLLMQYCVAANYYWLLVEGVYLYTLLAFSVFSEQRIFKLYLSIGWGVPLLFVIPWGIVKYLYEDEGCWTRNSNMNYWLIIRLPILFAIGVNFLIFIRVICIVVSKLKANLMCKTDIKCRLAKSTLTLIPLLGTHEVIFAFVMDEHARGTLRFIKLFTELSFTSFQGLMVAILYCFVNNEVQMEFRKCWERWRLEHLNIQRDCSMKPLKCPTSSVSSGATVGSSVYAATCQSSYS

B1: P16288 (antibody, human IgG4 S228P, kappa, V domains shown)
VH: QVQLVQSGAEMKKPGASVKVSCKTSGYRFSTYVISWVRQTPGQGLEWMGWISPYTGDIDYAQKFQGRVTITADESTSTAYMELSRLRSDDTAVYYCARERDGYNFPGMDVWGQGTTVTVSS
VL: DIQLTQSPSFLSASVGDRVTITCRASQGISSYLAWYQQKPGRAPKLLIYSASTLQRGVPSRFSGSGSGTDFTLTISSLQPEDYATYYCQQADSFPPSFGPGTKVDIKR
notes: Fully human Fab from a phage library, linked to IgG4 (S228P) constant regions; also called anti-GLP-1R antibody P16288
With B1 the “IC50, inhibition of GLP-1 (2.5 ng/mL) activity in hGLP-1R-CRE-Luciferase-HEK293 reporter gene assay” value [1] was 13.4 nM, the “IC50 (nM), inhibition of GLP-1 (1 ng/ml) induced cAMP (HTRF) in HEK293 cells transfected with human GLP-1R” value [2] was 211 nM and the “IC50 (nM), inhibition of GLP-1 (1 ng/ml) induced cAMP (HTRF) in HEK293 cells transfected with monkey GLP-1R” value [3] was 162 nM. For the same binder, the EC50 [4] was 9.9 nM and the EC50 [5] was 13 pM.

B2: P16289 (antibody, human IgG4 S228P, kappa, V domains shown)
VH: EVQLVETGGGVVQPGRSLRLSCAASGFTFSSYAMHWVRQAPGKGLEWVAVISYDGSNKYYADSVKGRFTISRDNSKNTLYLQMNSLRAEDTAVYYCAREGYSSSWTYYYYYYMDVWGKGTMVTVSS
VL: DIQLTQSPSSLSASVGDRVTITCRASQGVSRALAWYQQKPGKAPKLLIYDASYLEDGVPSRFSGSGSGTDFTLTISSLQPEDFATYYCQQSYSTPYTFGQGTKLEIKR
notes: Fully human Fab from a phage library, linked to IgG4 (S228P) constant regions; also called anti-GLP-1R antibody P16289
B2 was tested, and the “IC50, inhibition of GLP-1 (2.5 ng/mL) activity in hGLP-1R-CRE-Luciferase-HEK293 reporter gene assay” value [1] was > 2820 nM, the “IC50 (nM), inhibition of GLP-1 (1 ng/ml) induced cAMP (HTRF) in HEK293 cells transfected with human GLP-1R” value [2] was > 5500 nM and the “IC50 (nM), inhibition of GLP-1 (1 ng/ml) induced cAMP (HTRF) in HEK293 cells transfected with monkey GLP-1R” value [3] was > 5500 nM. For the same binder, the “IC50 (nM), inhibition of GLP-1 (6 ng/ml) induced cAMP (HTRF) in HEK293 cells transfected with mouse GLP-1R” value [6] was > 5500 nM, the EC50 [4] was > 137 nM and the EC50 [5] was 4.8 pM.
